Data taken from patent US20240238459.

What was measured:
[1] = system: T1, substrate sequence FVQWFSKFLGK (SEQ ID NO:3)
T1 sequence: FVQWFSKFLGK

[2] = system: T2, granzyme B-cleavable restricted interaction peptide (GRIP B), full length
T2 sequence: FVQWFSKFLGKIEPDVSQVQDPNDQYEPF

[3] = system: T3, quenched fluorogenic peptide NH2-K(MCA)IEPDVSQVK(DNP)-COOH
T3 sequence: KIEPDVSQVK

[4] = system: T4, ^64Cu-GRIP B
T4 sequence: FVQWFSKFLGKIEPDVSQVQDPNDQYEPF

Row | Substance | protease specificity (cleavage activity; enzyme 5 nM, substrate 60 µM) [1] | proteolytic cleavage [2] | kcat/Km [3] | proteolytic conversion on radio-HPLC [4]
1 | MMP9 | the substrate sequence is highly specific for granzyme B compared to the other proteases tested | – | – | –
2 | thrombin | the substrate sequence is highly specific for granzyme B compared to the other proteases tested | – | – | –
3 | recombinant human granzyme B | the substrate sequence is highly specific for granzyme B compared to the other proteases tested | full length GRIP B was efficiently cleaved by recombinant human GZMB | ˜8000 M^-1 sec^-1 | showed conversion within 30 minutes to one radiolabeled product
4 | caspase 8 | the substrate sequence is highly specific for granzyme B compared to the other proteases tested | – | – | –
5 | caspase 3 | the substrate sequence is highly specific for granzyme B compared to the other proteases tested | – | – | –
